{
  "source": "the Human Domainome abundance scans (Beltran et al. 2025)",
  "note": "± gives the uncertainty stated by the source.",
  "data": [
    {"test": "abundance fitness (aPCA) (normalised: wild type 0, dead -1); higher = more abundant; growth selection in yeast, the domain comes from the species named", "settings": "Homo sapiens", "values": [
      {"substance": "Scaffold attachment factor B1 D73C, Q15424", "abundance fitness": "-0.206 ± 0.059"},
      {"substance": "Scaffold attachment factor B1 D73E, Q15424", "abundance fitness": "-0.072 ± 0.067"},
      {"substance": "Scaffold attachment factor B1 D73F, Q15424", "abundance fitness": "-0.494 ± 0.085"},
      {"substance": "Scaffold attachment factor B1 D73G, Q15424", "abundance fitness": "-0.124 ± 0.049"},
      {"substance": "Scaffold attachment factor B1 D73H, Q15424", "abundance fitness": "-0.443 ± 0.098"},
      {"substance": "Scaffold attachment factor B1 D73K, Q15424", "abundance fitness": "-0.652 ± 0.12"},
      {"substance": "Scaffold attachment factor B1 D73L, Q15424", "abundance fitness": "-0.245 ± 0.059"},
      {"substance": "Scaffold attachment factor B1 D73M, Q15424", "abundance fitness": "-0.468 ± 0.1"},
      {"substance": "Scaffold attachment factor B1 D73N, Q15424", "abundance fitness": "-0.091 ± 0.097"},
      {"substance": "Scaffold attachment factor B1 D73P, Q15424", "abundance fitness": "-0.278 ± 0.068"},
      {"substance": "Scaffold attachment factor B1 D73Q, Q15424", "abundance fitness": "-0.362 ± 0.11"},
      {"substance": "Scaffold attachment factor B1 D73R, Q15424", "abundance fitness": "-0.288 ± 0.056"},
      {"substance": "Scaffold attachment factor B1 D73S, Q15424", "abundance fitness": "-0.243 ± 0.061"},
      {"substance": "Scaffold attachment factor B1 D73T, Q15424", "abundance fitness": "-0.231 ± 0.056"},
      {"substance": "Scaffold attachment factor B1 D73V, Q15424", "abundance fitness": "-0.23 ± 0.053"},
      {"substance": "Scaffold attachment factor B1 D73W, Q15424", "abundance fitness": "-0.513 ± 0.056"},
      {"substance": "Scaffold attachment factor B1 D73Y, Q15424", "abundance fitness": "-0.375 ± 0.073"},
      {"substance": "Scaffold attachment factor B1 E42C, Q15424", "abundance fitness": "-0.346 ± 0.063"},
      {"substance": "Scaffold attachment factor B1 E42D, Q15424", "abundance fitness": "-0.881 ± 0.099"},
      {"substance": "Scaffold attachment factor B1 E42F, Q15424", "abundance fitness": "-0.587 ± 0.076"},
      {"substance": "Scaffold attachment factor B1 E42H, Q15424", "abundance fitness": "-0.686 ± 0.12"},
      {"substance": "Scaffold attachment factor B1 E42I, Q15424", "abundance fitness": "-0.422 ± 0.057"},
      {"substance": "Scaffold attachment factor B1 E42K, Q15424", "abundance fitness": "-0.852 ± 0.1"},
      {"substance": "Scaffold attachment factor B1 E42L, Q15424", "abundance fitness": "-0.188 ± 0.061"},
      {"substance": "Scaffold attachment factor B1 E42M, Q15424", "abundance fitness": "-0.15 ± 0.074"},
      {"substance": "Scaffold attachment factor B1 E42N, Q15424", "abundance fitness": "-0.736 ± 0.11"},
      {"substance": "Scaffold attachment factor B1 E42P, Q15424", "abundance fitness": "-0.976 ± 0.18"},
      {"substance": "Scaffold attachment factor B1 E42Q, Q15424", "abundance fitness": "-0.26 ± 0.083"},
      {"substance": "Scaffold attachment factor B1 E42R, Q15424", "abundance fitness": "-0.903 ± 0.053"},
      {"substance": "Scaffold attachment factor B1 E42S, Q15424", "abundance fitness": "-0.605 ± 0.056"},
      {"substance": "Scaffold attachment factor B1 E42T, Q15424", "abundance fitness": "-0.776 ± 0.076"},
      {"substance": "Scaffold attachment factor B1 E42V, Q15424", "abundance fitness": "-0.53 ± 0.053"},
      {"substance": "Scaffold attachment factor B1 E42Y, Q15424", "abundance fitness": "-0.619 ± 0.1"},
      {"substance": "Scaffold attachment factor B1 E59D, Q15424", "abundance fitness": "-0.15 ± 0.074"},
      {"substance": "Scaffold attachment factor B1 E59F, Q15424", "abundance fitness": "-0.637 ± 0.071"},
      {"substance": "Scaffold attachment factor B1 E59G, Q15424", "abundance fitness": "-0.153 ± 0.076"},
      {"substance": "Scaffold attachment factor B1 E59H, Q15424", "abundance fitness": "-0.087 ± 0.063"},
      {"substance": "Scaffold attachment factor B1 E59I, Q15424", "abundance fitness": "-0.071 ± 0.067"},
      {"substance": "Scaffold attachment factor B1 E59K, Q15424", "abundance fitness": "-0.152 ± 0.084"},
      {"substance": "Scaffold attachment factor B1 E59L, Q15424", "abundance fitness": "-0.15 ± 0.052"},
      {"substance": "Scaffold attachment factor B1 E59M, Q15424", "abundance fitness": "-0.131 ± 0.064"},
      {"substance": "Scaffold attachment factor B1 E59N, Q15424", "abundance fitness": "-0.131 ± 0.065"},
      {"substance": "Scaffold attachment factor B1 E59Q, Q15424", "abundance fitness": "-0.19 ± 0.096"},
      {"substance": "Scaffold attachment factor B1 E59R, Q15424", "abundance fitness": "-0.078 ± 0.074"},
      {"substance": "Scaffold attachment factor B1 E59S, Q15424", "abundance fitness": "-0.111 ± 0.051"},
      {"substance": "Scaffold attachment factor B1 E59T, Q15424", "abundance fitness": "-0.082 ± 0.053"},
      {"substance": "Scaffold attachment factor B1 E59V, Q15424", "abundance fitness": "-0.125 ± 0.046"},
      {"substance": "Scaffold attachment factor B1 E59W, Q15424", "abundance fitness": "-0.408 ± 0.11"},
      {"substance": "Scaffold attachment factor B1 E59Y, Q15424", "abundance fitness": "-0.343 ± 0.095"},
      {"substance": "Scaffold attachment factor B1 E66C, Q15424", "abundance fitness": "-0.284 ± 0.069"},
      {"substance": "Scaffold attachment factor B1 E66F, Q15424", "abundance fitness": "-0.256 ± 0.061"},
      {"substance": "Scaffold attachment factor B1 E66G, Q15424", "abundance fitness": "-0.218 ± 0.052"},
      {"substance": "Scaffold attachment factor B1 E66H, Q15424", "abundance fitness": "-0.49 ± 0.075"},
      {"substance": "Scaffold attachment factor B1 E66I, Q15424", "abundance fitness": "-0.261 ± 0.058"},
      {"substance": "Scaffold attachment factor B1 E66K, Q15424", "abundance fitness": "-0.169 ± 0.082"},
      {"substance": "Scaffold attachment factor B1 E66L, Q15424", "abundance fitness": "-0.133 ± 0.051"},
      {"substance": "Scaffold attachment factor B1 E66M, Q15424", "abundance fitness": "-0.137 ± 0.046"},
      {"substance": "Scaffold attachment factor B1 E66N, Q15424", "abundance fitness": "-0.202 ± 0.075"},
      {"substance": "Scaffold attachment factor B1 E66P, Q15424", "abundance fitness": "-0.909 ± 0.097"},
      {"substance": "Scaffold attachment factor B1 E66Q, Q15424", "abundance fitness": "-0.014 ± 0.078"},
      {"substance": "Scaffold attachment factor B1 E66R, Q15424", "abundance fitness": "-0.202 ± 0.047"},
      {"substance": "Scaffold attachment factor B1 E66S, Q15424", "abundance fitness": "-0.164 ± 0.056"},
      {"substance": "Scaffold attachment factor B1 E66T, Q15424", "abundance fitness": "-0.11 ± 0.076"},
      {"substance": "Scaffold attachment factor B1 E66V, Q15424", "abundance fitness": "-0.244 ± 0.05"},
      {"substance": "Scaffold attachment factor B1 E66W, Q15424", "abundance fitness": "-0.43 ± 0.059"},
      {"substance": "Scaffold attachment factor B1 E66Y, Q15424", "abundance fitness": "-0.288 ± 0.075"},
      {"substance": "Scaffold attachment factor B1 E68A, Q15424", "abundance fitness": "-0.233 ± 0.05"},
      {"substance": "Scaffold attachment factor B1 E68C, Q15424", "abundance fitness": "-0.586 ± 0.056"},
      {"substance": "Scaffold attachment factor B1 E68D, Q15424", "abundance fitness": "-0.224 ± 0.073"},
      {"substance": "Scaffold attachment factor B1 E68G, Q15424", "abundance fitness": "-0.289 ± 0.045"},
      {"substance": "Scaffold attachment factor B1 E68H, Q15424", "abundance fitness": "-0.359 ± 0.057"},
      {"substance": "Scaffold attachment factor B1 E68I, Q15424", "abundance fitness": "-0.469 ± 0.05"},
      {"substance": "Scaffold attachment factor B1 E68K, Q15424", "abundance fitness": "-0.352 ± 0.07"},
      {"substance": "Scaffold attachment factor B1 E68M, Q15424", "abundance fitness": "-0.461 ± 0.054"},
      {"substance": "Scaffold attachment factor B1 E68N, Q15424", "abundance fitness": "-0.346 ± 0.056"},
      {"substance": "Scaffold attachment factor B1 E68P, Q15424", "abundance fitness": "-0.802 ± 0.051"},
      {"substance": "Scaffold attachment factor B1 E68Q, Q15424", "abundance fitness": "-0.279 ± 0.049"},
      {"substance": "Scaffold attachment factor B1 E68R, Q15424", "abundance fitness": "-0.341 ± 0.051"},
      {"substance": "Scaffold attachment factor B1 E68S, Q15424", "abundance fitness": "-0.236 ± 0.052"},
      {"substance": "Scaffold attachment factor B1 E68T, Q15424", "abundance fitness": "-0.314 ± 0.054"},
      {"substance": "Scaffold attachment factor B1 E68V, Q15424", "abundance fitness": "-0.265 ± 0.053"},
      {"substance": "Scaffold attachment factor B1 E68W, Q15424", "abundance fitness": "-0.836 ± 0.07"},
      {"substance": "Scaffold attachment factor B1 E74A, Q15424", "abundance fitness": "-0.071 ± 0.067"},
      {"substance": "Scaffold attachment factor B1 E74C, Q15424", "abundance fitness": "-0.18 ± 0.073"},
      {"substance": "Scaffold attachment factor B1 E74D, Q15424", "abundance fitness": "-0.312 ± 0.074"},
      {"substance": "Scaffold attachment factor B1 E74F, Q15424", "abundance fitness": "-0.175 ± 0.069"},
      {"substance": "Scaffold attachment factor B1 E74G, Q15424", "abundance fitness": "-0.202 ± 0.063"},
      {"substance": "Scaffold attachment factor B1 E74H, Q15424", "abundance fitness": "-0.608 ± 0.12"},
      {"substance": "Scaffold attachment factor B1 E74I, Q15424", "abundance fitness": "-0.215 ± 0.086"},
      {"substance": "Scaffold attachment factor B1 E74K, Q15424", "abundance fitness": "-0.213 ± 0.089"},
      {"substance": "Scaffold attachment factor B1 E74L, Q15424", "abundance fitness": "-0.125 ± 0.053"},
      {"substance": "Scaffold attachment factor B1 E74M, Q15424", "abundance fitness": "-0.119 ± 0.068"},
      {"substance": "Scaffold attachment factor B1 E74N, Q15424", "abundance fitness": "-0.366 ± 0.09"},
      {"substance": "Scaffold attachment factor B1 E74P, Q15424", "abundance fitness": "-0.309 ± 0.063"},
      {"substance": "Scaffold attachment factor B1 E74Q, Q15424", "abundance fitness": "-0.32 ± 0.088"},
      {"substance": "Scaffold attachment factor B1 E74R, Q15424", "abundance fitness": "-0.074 ± 0.051"},
      {"substance": "Scaffold attachment factor B1 E74S, Q15424", "abundance fitness": "-0.053 ± 0.053"},
      {"substance": "Scaffold attachment factor B1 E74T, Q15424", "abundance fitness": "-0.183 ± 0.083"},
      {"substance": "Scaffold attachment factor B1 E74V, Q15424", "abundance fitness": "-0.157 ± 0.055"},
      {"substance": "Scaffold attachment factor B1 E74W, Q15424", "abundance fitness": "-0.135 ± 0.055"},
      {"substance": "Scaffold attachment factor B1 E74Y, Q15424", "abundance fitness": "-0.226 ± 0.09"},
      {"substance": "Scaffold attachment factor B1 E76A, Q15424", "abundance fitness": "-0.161 ± 0.064"},
      {"substance": "Scaffold attachment factor B1 E76C, Q15424", "abundance fitness": "-0.113 ± 0.054"},
      {"substance": "Scaffold attachment factor B1 E76G, Q15424", "abundance fitness": "-0.096 ± 0.053"},
      {"substance": "Scaffold attachment factor B1 E76I, Q15424", "abundance fitness": "-0.291 ± 0.093"},
      {"substance": "Scaffold attachment factor B1 E76K, Q15424", "abundance fitness": "-0.294 ± 0.096"},
      {"substance": "Scaffold attachment factor B1 E76L, Q15424", "abundance fitness": "-0.199 ± 0.062"},
      {"substance": "Scaffold attachment factor B1 E76M, Q15424", "abundance fitness": "-0.2 ± 0.086"},
      {"substance": "Scaffold attachment factor B1 E76N, Q15424", "abundance fitness": "-0.169 ± 0.067"},
      {"substance": "Scaffold attachment factor B1 E76P, Q15424", "abundance fitness": "-0.069 ± 0.083"}
    ]}
  ]
}
